Measured values as given in the RNAGym collection of RNA variant scans (doi:10.1073/pnas.2313332121).
Variants at the floor of the assay were thinned out.

B1: TPR 5TU (parent)
chain: GGAUCUUCUCGAUCUAACAAAAAAGACAAAUCUGCCACAAAGCUUGAGAGCAUCUUCGGAUGCAGAGGCGGCAGCCUUCGGUGGCGCGAUAGCGCCAACGUUCUCAACUAUGACACGCAAAACGCGUGCUCCGUUGAAUGGAGUUUAUCAUG

Variants of: B1
Experiment: polymerase ribozyme fitness, log enrichment relative to wild type (log ratio); higher = more active; in vitro selection for triplet polymerase activity
How it was run: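 After PCR construction and transcription, each subunit's mutant library from a heterodimeric triplet polymerase ribozyme was annealed with a biotinylated primer, the partner subunit and triplets. Incubation was frozen, at −7 °C, and extended constructs were gel-excised, bound to streptavidin beads and amplified by RT-PCR, in one selection round done in triplicate. Fitness is the logarithm of a genotype's enrichment divided by that of the wild type, from inverse-variance-weighted replicate averages of Illumina-sequenced inputs and outputs. The base of the logarithm is 2, and genotypes needed ≥10 input reads and ≥1 read per output.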

**Q.** For GGAUCUUCUCGAUCUAACAAAAAAGACAAAUCUGCCACAAAGCUUGAGGGCAUCUUCGGAUGCAGAGGCGGCAGCCUUCGGUGGCGCGAUAGAGCCAACAUUCUCAACUAUGACACGCAAAACGCGUGCUCCGUUGAAUGGAGUUUAUCAUG [A49G C93A G100A], which “polymerase ribozyme fitness (log ratio)” value is on record?
**A.** ≤ -4.2

**Q.** With GGAUCUUCUCGAUCUAACAAAAAAGACAAAUCUGCCACAAAGCUUGAGGGCAUCUUCGGAUGUAGAGGCGGCAGCCUUCGGUGGUGCGAUAGCGCCAACGUUCUCAACUAUGACACGCAAAACGCGUGCUCCGUUGAAUGGAGUUUAUCAUG [A49G C63U C85U] as the variant, how does the “polymerase ribozyme fitness (log ratio)” value read?
**A.** -0.955

**Q.** For GGAUCUUCUCGAUCUAACAAAAAAGACAAAUCUGCCACAAAGCUUGAGGGCAUCUUCGGAUGCAGAGGCGGCAGACUUCGGUGGCGCGAUAGCGCCAACGUUCUCAACUAUGACACGCAAAACGCGUGCUCCGUUUACUGGAGUUUAUCAUG [A49G C75A G136U A138C], which “polymerase ribozyme fitness (log ratio)” value is on record?
**A.** ≤ -4.2

**Q.** For GGAUCUUCUCGAUCUAACAAAAAAGACAAAUCUGCCACAAAGCUUGAGGGCAUCUUCGGAUGCAGAGGCGGCAGCCUUCGGUGGCGCGAUAACGCCAACGUUCUCAACUAUGACACGCAAAACGCGUGCUCCGUUGAAUGGAGUUUAUCAUG [A49G G92A], which “polymerase ribozyme fitness (log ratio)” value is on record?
**A.** -3.9

**Q.** With GGAUCUUCUCGAUCUAACAAAAAAGACAAAUCUGCCACAAAGCUUGAGGGCAUCUUCGGAUGCAGAGGCGGCAGCCUUCGGUGGCGCGAUACCGCCAACGUUCUCAACUAUGACACGCAAAACGCGUGCUCCGUUGAAUGGAGUUUAUCAUG [A49G G92C] as the variant, how does the “polymerase ribozyme fitness (log ratio)” value read?
**A.** -2.39

**Q.** Which “polymerase ribozyme fitness (log ratio)” value does the source give for GGAUCUUCUCGAUCUAACAAAAAAGACAAAUCUGCCACAAAGCUUGAGCGCAUCUUCGGAUGCAGAGGCGGCAGCCUUCGGUCGCGCGAUAGCGGCAACGAUCUCAACUAUGACACGCAAAACGCGUGCUCCGUUGAAUGGAGUUUAUCAUG [A49C G83C C95G U101A] here?
**A.** ≤ -4.2

**Q.** For GGAUCUUCUCGAUCUAACAAAAAAGACAAAUCUGCCACAAAGCUUGAGGCCAUCUUCGGAUGCAGAGGCGGCAGCCAUCGGUGGCGCGAUAACGCCAACGUUGUCAACUAUGACACUCAAAACGCGUGCUCCGUUGAAUGGAGUUUAUCAUG [A49G G50C U77A G92A C103G G117U], which “polymerase ribozyme fitness (log ratio)” value is on record?
**A.** ≤ -4.2

**Q.** For GGAUCUUCUCGAUCUAACAAAAAAGACAAAUCUGCCACAAAGCUUGAGGGCAUCUUCGGAUGCAGAGGCGACAGCCUUCGGUGGCGCGAUAGCGCCAACGUUCUCAACUAUGACACGCAAAACGCAUGCUCCGUUGAAUGGAGUUUAUCAUG [A49G G71A G126A], which “polymerase ribozyme fitness (log ratio)” value is on record?
**A.** ≤ -4.2

**Q.** With GGAUCUUCUCGAUCUAACAAAAAAGACAAAUCUGCCACAAAGCUUGAGGGCAUCUUCGGAUGCAGAGGCGGCAGCCUUCGGUGGCGCGAUGUCGCCAACGUUCUCAACUAUGACACGCAAAACGCGUGCUCCGUUGAUUGGAGCUUAUCAUG [A49G A91G G92U A138U U144C] as the variant, how does the “polymerase ribozyme fitness (log ratio)” value read?
**A.** ≤ -4.2

**Q.** Which “polymerase ribozyme fitness (log ratio)” value does the source give for GGAUCUUCUCGAUCUAACAAAAAAGACAAAUCUGCCACAAAGCUUGAGGGCAUCUUCGGAUGCAGAGGCGGCAGCCUUCGGUGGCGCGAUAGCGCCAACGUUCUCAACUAUGACACGCAUAACGCGUGCUCCGUUGAAUGGAGUUUAUCAUG [A49G A120U] here?
**A.** -0.63

**Q.** Which “polymerase ribozyme fitness (log ratio)” value does the source give for GGAUCUUCUCGAUCUAACAAAAAAGACAAAUCUGCCACAAAGCUUGAGGGCAUCUUUGGAUGCAGAGGCGGCAGCCUUCGGUGGCGCGAUAGCGCCAACGUUCUCAACUAUGACACGCAAAACGCGUGCUCCGUUGAAUGGAGUUUAUCAUG [A49G C57U] here?
**A.** -0.525

**Q.** Which “polymerase ribozyme fitness (log ratio)” value does the source give for GGAUCUUCUCGAUCUAACAAAAAAGACAAAUCUGCCACAAAGCUUGAGCGCAUCUUCGGAUGCAGAGGCGGCAGCCUUCUGUGGCGCGAUAGCGCCAACGUUCUCAACUAUGACACGCAAAACGCGUGCUCCGUUGAAUGGAGUUUAUCAUG [A49C G80U] here?
**A.** -4.02

**Q.** For GGAUCUUCUCGAUCUAACAAAAAAGACAAAUCUGCCACAAAGCUUGAGGGCAAUUUCGGAUGCAGAGGCGGCAGCCUUCGGUGGCGCGAUAGCGCCAACGUUCUCAACUAUGACACGCAAAACGCGUGCUCCGUUGAAUGGAGUUUAUCAUG [A49G U53A C54U], which “polymerase ribozyme fitness (log ratio)” value is on record?
**A.** -2.09

**Q.** With GGAUCUUCUCGAUCUAACAAAAAAGACAAAUCUGCCACAAAGCUUGAGGGGAGCUUCGGAUGCAGAGGCGGCAGCCUUUGGUGGCGCGAUAGCGCCAACGUUCUCAACUAUGACACGUAAAACGCGUGCUCCGUUGAAUGGAGUUUAUCAUG [A49G C51G U53G C79U C118U] as the variant, how does the “polymerase ribozyme fitness (log ratio)” value read?
**A.** ≤ -4.2

**Q.** With GGAUCUUCUCGAUCUAACAAAAAAGACAAAUCUGCCACAAAGCUUGAGGGCAUCUUCGGAUGCAGAGGCGGCAGCCUUCGGUGGCGCGAUAGCGCCAACGUUCUCAACUAUGACACGCCAAACGCGUGCUCCGUUGAAUGGAGUUUAUCAUG [A49G A119C] as the variant, how does the “polymerase ribozyme fitness (log ratio)” value read?
**A.** -0.604

**Q.** With GGAUCUUCUCGAUCUAACAAAAAAGACAAAUCUGCCACAAAGCUUGAGCGCAUCUUCGGAUGCAGAGGCGGCAGCCUUCGGAGGUGCAAUAUCGCCAACGUUCUCAACUAUGACACGCAAAACGCGUGCUCCAUUGAAUGUAGUUUAUCAUG [A49C U82A C85U G88A G92U G133A G141U] as the variant, how does the “polymerase ribozyme fitness (log ratio)” value read?
**A.** ≤ -4.2

**Q.** With GGAUCUUCUCGAUCUAACAAAAAAGACAAAUCUGCCACAAAGCUUGAGGCCAUCUUCGGAUGCAGAGGCGGCAGCCUUCGGUGGCGCGAUAGCGCCAACGUUCUCAACUAUGACACGCAAAACGCGUGCUCCGUUGAAUGGAGUUUAUCAUG [A49G G50C] as the variant, how does the “polymerase ribozyme fitness (log ratio)” value read?
**A.** -2.28

**Q.** With GGAUCUUCUCGAUCUAACAAAAAAGACAAAUCUGCCACAAAGCUUGAGGCCAUCUUCGGAUGCAGAGGCGACAGCCUUCGGUGGCGCGAUUGCGCCAACGUUCUCAACUAUGACACGCAAAACGCGUGCUCCGUUGAAUGGAGUUUAUCAAG [A49G G50C G71A A91U U151A] as the variant, how does the “polymerase ribozyme fitness (log ratio)” value read?
**A.** ≤ -4.2

**Q.** For GGAUCUUCUCGAUCUAACAAAAAAGACAAAUCUGCCACAAAGCUUGAGGGCAUCUUCGCAUGCAGAGGCGGCAGCCGUCGGUGGCGCGAUAGCGCCAACGUUCUCAACUAUGACACGCAAAACGCGUGCUCCGUUGAAAGGAGUUUAUCAUG [A49G G59C U77G U139A], which “polymerase ribozyme fitness (log ratio)” value is on record?
**A.** ≤ -4.2
